Laboratory results reported in patent US20240189443A1, “PD-L1 AND TLR7 DOUBLE-TARGETING NANOBODY COUPLING DRUG AND USE THEREOF IN ANTI-TUMOR” (SHANGHAI INSTITUTE OF MATERIA MEDICA, CHINESE ACADEMY OF …, priority 2021, published 2024).
Positions count from the first letter of the chain named. Several values for one entry are separate records, joined by “and”; a condition that tells them apart may be missing. Identical values can stand only once. Each block holds one molecule with its values, some of them ahead of it.

Tests used:
PD-1/PD-L1 [1] = target: T1, PD-1/PD-L1 (Mus musculus, UniProt Q9EP73); assay: In vitro activity of candidate nanobodies NB9, NB10, NB11, NB17 (blocking or non-blocking type); assay type: binding
Target sequence in this assay (Q9EP73 19-239): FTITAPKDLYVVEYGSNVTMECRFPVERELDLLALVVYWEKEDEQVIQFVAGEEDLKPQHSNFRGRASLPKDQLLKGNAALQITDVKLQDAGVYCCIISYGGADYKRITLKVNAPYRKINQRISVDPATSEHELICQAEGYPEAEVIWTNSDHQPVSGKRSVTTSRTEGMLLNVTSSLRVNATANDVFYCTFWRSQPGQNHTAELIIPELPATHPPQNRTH

HEK293T/hPD-L1 = target: T2, HEK293T/hPD-L1 (Homo sapiens, UniProt Q9NZQ7); assay: Human PD-L1 binding activity assay of candidate anti-human PD-L1 nanobodies (flow cytometry); details: nanobody 10 μg/mL
T2 construct: expressed in transfected cells; host or cells: HEK293T
Protocol: The cell strain HEK293T/hPD-L1 was digested, and centrifugationwas performed to remove the supernatant; the cells were washed one time with PBS and the cell density was adjusted to 2.5×10^6 cells/mL; each cell sample was added to a 100 μL cell suspension, that is, a 2.5×10^5 cell/sample was comprised; different anti-human PD-L1 candidate nanobodies (the concentration is 10 μg/mL) were respectively added to the samples; incubating for 20 min at 4° C.; centrifuging, removing supernatant, and the cells were washing once with PBS; using diluted antibody anti-human IgG Fc (FITC) as secondary antibody, and the cells were re-suspended; incubating at 4° C. for 20 min; centrifuging, removing supernatant, the cells were washing twice with PBS, and transferred to a flow tube; and was performed on-machine detection by using a flow cytometer to obtain the binding activity of the candidate nanobody and human PD-L1, as shown in FIG. 13.

[2] = target: T3, human PD-1/PD-L1 (HEK293T/hPD-L1) (Homo sapiens, UniProt Q9NZQ7); assay: Human PD-1/PD-L1 blocking activity assay of candidate anti-human PD-L1 nanobodies (flow cytometry); assay type: binding; details: nanobody 10 μg/mL, human PD-1-his 1 μg/mL
T3 construct: expressed in transfected cells; host or cells: HEK293T
Protocol: The cell strain HEK293T/hPD-L1 was digested, and centrifugationwas performed to remove the supernatant; the cells were washed one time with PBS and the cell density was adjusted to 2.5×10^6 cells/mL; each cell sample was added to a 100 μL cell suspension, that is, a 2.5×10^5 cell/sample was comprised; and the human PD-1-his protein (the concentration was 1 μg/mL) and the anti-human PD-L1 candidate nanobody (the concentration was 10 μg/mL) were respectively added to the sample; the cells were incubated for 20 min at 4° C.; centrifuging, supernatant was removed, and the cells were washed once with PBS; using diluted antibody anti-his-APC as secondary antibody, and the cells were re-suspended; incubated at 4° C. for 20 min; centrifuging, supernatant was removed, the cells were washedtwice with PBS, and was transferred to a flow tube; and was performed on-machine detection by using a flow cytometer to obtain the PD-1/PD-L1 blocking activity of the candidate nanobody, as shown in FIG. 14.

human PD-L1 = human PD-L1 (Homo sapiens, UniProt Q9NZQ7); assay: CDR affinity maturation of anti-human PD-L1 nanobodies, affinity compared with original antibody; assay type: binding; details: relative to original antibody h_Nb1 VHH or h_Nb2 VHH
Excerpt: Wherein, the original antibody corresponding to the sequence shown in SEQ ID NO.92-106 is h_Nb1 VHH (SEQ ID NO.21); and the original antibody corresponding to the sequence shown in SEQ ID NO.107 -117 is h_Nb2 VHH (SEQ ID NO.25).

mPD-L1-Fc fusion protein [3] = target: T4, mPD-L1-Fc fusion protein (mouse; human, UniProt Q9EP73 19-239); assay: ELISA, coated mPD-L1-Fc, anti-mouse HRP detection
T4 construct: extracellular domain; also called Mouse PD-L1 (ECD)-pFUSE-hIgG1-Fc; not shown: Fc of human IgG1 from vector pFUSE-hIgG1-Fc
Protocol: Coating the plate with mPD-L1-Fc fusion protein at 4° C. overnight, then the plate was sealed with BSA at 37° C. for 2 hours, Nb 16 nanobodies of different concentrations were added in each hole, reacted at room temperature for 1 hour, and the plate were washed and goat anti-mouse horseradish peroxidase labeled antibody was added, and reacting at room temperature for 1 hour. After washing, a color developing solution was added, and an absorption value was read at a wavelength of 450 nm.

mPD-L1-Fc fusion protein [4] = target: T4, mPD-L1-Fc fusion protein; assay: competition ELISA, coated mPD-L1-Fc, 10 µg/mL mouse PD-1-Fc-Biotin, SA-HRP detection
Protocol: (§1) Coating the plate with mPD-L1-Fc fusion protein at 4° C. overnight, then the plate was sealed with BSA at 37° C. for 2 hours, Nb16 nanobodies of different concentrations and 10 μg/mL mouse PD-1-Fc-Biotin fusion protein were added in each hole., After reacting at room temperature for 1 hour, the plate was washed and antibody SA-HRP was added, and the plate reacted at room temperature for 1 hour. After washing, a color developing solution was added, and an absorption value was read at a wavelength of 450 nm.

[5] = test system: induced high-expression PD-L1 CT26 tumor cell; assay: Combined anti-tumor effect of Nb16 and SZU-101, IFN-γ-induced CT26 subcutaneous tumor model; assay type: in vivo, BALB/c mouse; details: Nb16 10 mg/kg intraperitoneal, SZU-101 3 mg/kg peritumoral
Protocol: The mouse CT26 tumor cells were recovered and passaged, it was ensured that tumor cells at least have been subjected to 3 generations during tumor-bearing, and mouse IFN-γ with a final concentration of 100 ng/mL was used to induce tumor cells for 24 h before tumor-bearing, so that the cell surface thereof highly expresses PD-L1; the induced high-expression PD-L1 CT26 tumor cell was inoculated subcutaneously into a female BALB/c mouse, wherein the inoculation amount was 1×10^6 cells/one; and randomly grouping mice into four groups (9 per group), i.e., a same-type control group (mFc), a nano-antibody Nb16 group (Nb16), a TLR7 agonist SZU-101 group (SZU-101) and a combined treatment group (NB16/SZU-101), wherein the administration amount of the mFc and the Nb16 was 10 mg/kg, and intraperitoneal administration was performed; and the administration amount of the SZU-101 was 3 mg/kg, and the tumor was administered circumferentially. The administration cycle were Nb16 administered on D1, D5, D9, D12, and D14 and SZU-101 administered on D9-D14 (3A). The body weight of the mouse and the tumor major diameter (L) and the short diameter (W) in the administration cycle were observed and recorded until the anatomical endpoint, and the tumor volume V=(L×W×W)/2 was calculated, a tumor growth curve was drawed, and the tumor inhibition rate was calculated; and the experiment was terminated on the fifteenth day. After performing euthanasia, the animal was dissected, and the subcutaneous tumor was taken out.

[6] = test system: IFN-γ-induced high-expression PD-L1 CT26; assay: IFN-γ-induced high-expression PD-L1 CT26 subcutaneous tumor-bearing model, conjugate vs combined administration; assay type: in vivo, BALB/c mouse; details: Day 14, Nb16 or Nb16-SZU-101 10 mg/kg, SZU-101 0.5 mg/kg, intraperitoneal, 4 doses
Protocol: In an IFN-γ-induced high-expression PD-L1 CT26 subcutaneous tumor-bearing BALB/c mouse model, mice were randomly divided into four groups, namely an mFc group, an Nb16 group, an Nb16/SZU-101 combined administration group and an NB16-SZU-101 nanobody conjugate drug group, wherein the administration dosage of the mFc or Nb 16 or Nb16-SZU-101 was 10 mg/kg, the administration mode was intraperitoneal administration, the administration dosage of the SZU-101 was 0.5 mg/kg, and the administration mode was intraperitoneal administration; the drug was administered on Day 2, Day 6, Day 10 and Day 13 for a total of 4 times. Tumor sizes were measured 2-3 times per week, and tumor growth curves were drawn; and anatomical weighing and photographing were performed on mice at Day 14.

PD-1/PD-L1 [7] = target: T1, PD-1/PD-L1; assay: ELISA PD-1/PD-L1 blocking activity assay of nanobody Nb16; assay type: binding; design: A Mouse PD-L1 (ECD)-pFUSE-hIgG1-Fc vector is constructed; made in house; host or cells: HEK293F (PD-L1-Fc)
Protocol: as §1
Target sequence in this assay (Q9EP73 19-239 limits assumed): as the sequence (Q9EP73 19-239) above

[8] = target: T5, mouse PD-L1 on cell strain HEK293T/mPD-L1 (mouse, UniProt Q9EP73 19-290); assay: flow cytometry on HEK293T/mPD-L1, anti-mouse IgG Fc (PE)
T5 construct: whole, on cells
T5 sequence (Q9EP73 19-290): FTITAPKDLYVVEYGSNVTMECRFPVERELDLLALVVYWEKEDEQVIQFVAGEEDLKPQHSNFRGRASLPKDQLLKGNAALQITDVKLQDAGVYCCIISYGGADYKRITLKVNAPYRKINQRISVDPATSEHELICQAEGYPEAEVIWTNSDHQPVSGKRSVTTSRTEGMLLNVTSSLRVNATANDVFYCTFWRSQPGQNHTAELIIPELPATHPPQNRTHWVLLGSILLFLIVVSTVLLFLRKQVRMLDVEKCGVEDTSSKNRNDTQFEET

T3 sequence (Q9NZQ7 19-290): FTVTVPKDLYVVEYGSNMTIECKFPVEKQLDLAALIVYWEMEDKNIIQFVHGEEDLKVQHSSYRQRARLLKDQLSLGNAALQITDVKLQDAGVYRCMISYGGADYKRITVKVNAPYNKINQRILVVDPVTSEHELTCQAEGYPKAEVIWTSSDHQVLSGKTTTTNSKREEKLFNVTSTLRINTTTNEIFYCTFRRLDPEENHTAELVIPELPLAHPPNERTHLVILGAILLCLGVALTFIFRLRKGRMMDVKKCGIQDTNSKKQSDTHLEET
T2 sequence (Q9NZQ7 19-290): as above
T4 sequence (Q9EP73 19-239 limits assumed): as the sequence (Q9EP73 19-239) above
Chain of human PD-L1 (Q9NZQ7 19-290): as the sequence (Q9NZQ7 19-290) above

B1: Nb11: anti-PD-L1 nanobody, VHH SEQ ID NO: 13 (protein)
VHH: QVQLQESGGGSVQAEGSLRLSCSAPIYVTYYGTYCMGWFRQAPGKEREGVAGISGDGRTSYADSVKGRFTVSKDNAKNTLYLEMNSLKPEDTAMYYCALRIGGYCDTLNGADFRYWGQGTQVTVSS
modifications: Nb11 Amino acid sequence of VHH
- Blocking type or non-blocking type nanobody (PD-1/PD-L1 [1]): non-blocking

B3: Nb10: anti-PD-L1 nanobody, VHH SEQ ID NO: 9 (protein)
VHH: QVQLQESGGGSVQAGGSLRLSCAASGYRFCRLAMRWYRQAPGKEREFVSFIDSGGTTSYADSVKGRFTISRDSAKNTVYLQMNSLKPEDTGMYYCNSDILGGGGGCPVSSYWGQGTQVTVSS
modifications: Nb10 Amino acid sequence of VHH
- Blocking type or non-blocking type nanobody (PD-1/PD-L1 [1]): blocking type

B4: Nb17: anti-PD-L1 nanobody, VHH SEQ ID NO: 17 (protein)
VHH: QVQLQESGGGSVQAGGSLRLSCAASGYSARRRMGWFRQAPGKEREGVASIYTAGGRTWYADSVKGRFTISQDNAKNTVYLQMNSLKPDDTAMYYCAASPAPYGAESLSEADFAYWGQGTQVTVSS
modifications: Nb17 Amino acid sequence of VHH
- Blocking type or non-blocking type nanobody (PD-1/PD-L1 [1]): non-blocking

B8: Nb16: anti-PD-L1 nanobody, VHH sequence SEQ ID NO: 1, expressed as Fc fusion (protein)
chain: QVQLQESGGGSVQAGGSLRLSCAASGYTDRNYWMGWFRQAPGKEREGVAALYTRTGSTYYADSVKGRFTISHDNAKNTLYLQMNSLKPEDTAVYYCAADSNAYGLAPLHHYWGQGTQVTVSS
modifications: left off: a dimerising Fc or GST
- Anti-tumor effect [5]: significantly inhibit tumor growth
- Tumor inhibitory rate ([5]; day 15): 35%
- Endpoint tumor Weight ([5]; individual mice, day 15): 0.806 g and 0.505 g and 0.460 g and 0.450 g and 0.250 g and 0.381 g and 0.664 g and 0.361 g and 0.418 g
- Tumor inhibitory rate [6]: 30%
- Endpoint tumor Weight ([6]; individual mice): 0.263 g and 0.591 g and 0.342 g and 0.334 g and 0.494 g and 0.442 g
- Blocking of PD-1/PD-L1 binding (PD-1/PD-L1 [7]): effectively blocked

B9: PD-L1 and TLR7 double-targeting nanobody coupling drug Nb16-SZU-101 (Fc fusion)
chain: B8 chain
modifications: TLR7 agonist SZU-101 coupled through SZU-101-NHS active ester to amino groups, sites not given; coupling degree 4.5
notes: not shown: Fc of mouse IgG2b from vector pFUSE-mIgG2b-Fc
- binding result [8]: binds

The next lines start with the values.

- Binding activity with human PD-L1 (HEK293T/hPD-L1): good binding activity
- Blocking of human PD-1/PD-L1 binding [2]: effectively block
B2: h_Nb1: anti-human PD-L1 nanobody, VHH SEQ ID NO: 21 (protein)
VHH: DVQLQESGGGLVQPGGSLRLSCAASGFTFSSYAMSWVRQAPGKGLEWVSDINSGGDNTDYADSVKGRFTISRDNAKNTLYLQMNSLKPEDTAVYYCARGPKLCFSSWGQGTQVTVSS
modifications: h_Nb1 Amino acid sequence of VHH

- Binding activity with human PD-L1 (HEK293T/hPD-L1): good binding activity
- Blocking of human PD-1/PD-L1 binding [2]: effectively block
B5: h_Nb2: anti-human PD-L1 nanobody, VHH SEQ ID NO: 25 (protein)
VHH: DVQLQESGGGLVQPGGSLRLSCAASGFTFGDRWMYWLRQAPGKGLEWVSSINPAGRSTYYADSVKGRFTISRDNAKNTLYLQMNSLKSEDTAVYYCTKDPGGYQKGQGTQVTVSS
modifications: h_Nb2 Amino acid sequence of VHH

- Increased relative affinity (human PD-L1): 8.4837
B6: h_Nb2_G101Y: affinity-matured h_Nb2 VHH, SEQ ID NO: 112 (protein)
VHH: B5 VHH with G102Y
modifications: h_Nb2_G101Y

- EC50 (mPD-L1-Fc fusion protein [3]): 0.045 µg/mL
- IC50 (mPD-L1-Fc fusion protein [4]): 1.02 µg/mL
B7: nanobody Nb16 (Fc fusion)
chain: B8 chain
notes: also called bare anti-Nb16; original PD-L1 nanobody; not shown: Fc of mouse IgG2b from vector pFUSE-mIgG2b-Fc
